The source of these data is patent publication US20130243795A1 (Janssen / Centocor, published 2013).

Where a chain is given by its changes, count along the chain named.

Test [1] concerns the target T1, Human CD27 ECD, monomeric soluble (construct limits not stated) (human, UniProt P26842 20-191).
T1 construct: extracellular domain; target of the Biacore assays; also called monomeric soluble CD27; CD27-His
Put plainly: Biacore SPR, purified mAb. (In general: SPR reads the build-up and loss of mass on a sensor chip optically.)

Test [2] addresses T2, Human CD27 ECD truncated (ECD 1-121, cleavage site, His6) (human).
T2 construct: also called human CD27 ECD with His Tag; CD27-His
T2 chain: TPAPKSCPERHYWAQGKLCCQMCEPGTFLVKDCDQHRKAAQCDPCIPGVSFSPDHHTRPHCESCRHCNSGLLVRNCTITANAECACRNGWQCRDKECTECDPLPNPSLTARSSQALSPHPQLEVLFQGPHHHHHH
Put plainly: ProteOn SPR, purified mAb, CD27-His.

Test [3] concerns the target T1, Human CD27 ECD, monomeric soluble …. Put plainly: Biacore SPR, purified mAb; reference M160.
Test [4] concerns the target T2, Human CD27 ECD truncated (ECD 1-121, …). Put plainly: ProteOn SPR, purified mAb, CD27-His.
For test [5], the target named is T3, Human CD27 ECD (ECD 1-173, His6) (human, UniProt P26842 21-193, biotinylated on amine residues (NHS-ester) where used biotinylated).
T3 construct: also called biotinylated human CD27 ECD
Put plainly: Fab format, pIX display and binding.

Test [6] has as its target T1, Human CD27 ECD, monomeric soluble …. Briefly: Biacore SPR, purified mAb; reference M158.
Test [7] has the same target. Put plainly: Biacore SPR, purified mAb; reference M166.
The target in test [8] is T4, Human CD27, full length on the cell surface (human, UniProt P26842 21-260). Put plainly: cell-based or functional assay.
Test [9] addresses T4, Human CD27, full length on the cell …. Briefly: cell-based or functional assay. This is another data set of the same source.
The target in test [10] is T5, Recombinant human CD27/Fc chimera (R&D Systems, Cat#382-CD) (human, UniProt P26842 20-191).
T5 construct: extracellular domain; bought protein; also called huCD27-Fc; Hu CD27 Fc; Fc part of the bought chimera not given
Put plainly: inhibition of IM-9 (CD70+) cell binding to immobilized CD27/Fc.

For test [11], the target named is T1, Human CD27 ECD, monomeric soluble …. Put plainly: Biacore SPR; mAb captured via anti-mouse Fc; CD27 ECD as analyte; 25 C.

T1 sequence (P26842 20-191): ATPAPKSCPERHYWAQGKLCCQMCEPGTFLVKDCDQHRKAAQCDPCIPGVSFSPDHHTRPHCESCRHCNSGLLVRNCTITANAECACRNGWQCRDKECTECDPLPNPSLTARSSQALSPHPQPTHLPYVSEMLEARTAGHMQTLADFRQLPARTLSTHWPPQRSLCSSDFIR
T5 sequence (P26842 20-191, change not shown): as the sequence (P26842 20-191) above

B1: M169 (antibody, V domains shown)
VH: EVQLVQSGAEVKKPGESLKISCKGSGYAFSSSWMNWVRQMPGKGLEWMGRIYSGDGDTNYNGKFKGQVTISADKSISTAYLQWSSLKASDTAMYYCARSDYYGDYGFAYWGQGTLVTVSS
VL: DIQMTQSPSSLSASVGDRVTITCKASQSVDYAGDSFMNWYQQKPGKAPKLLIYAASNLESGVPSRFSGSGSGTDFTLTISSLQPEDFATYYCQQSNEDPYTFGQGTKVEIK
notes: isotype not restated (path 2 mAbs were IgG4 Ser to Pro, Ala/Ala / kappa); also called H221, L219; CM169
Usually Kd stands for the free concentration of one partner at which half of the binding sites on the other are occupied at equilibrium, for simple one-to-one binding. Higher therefore signals weaker binding. For orientation: koff means a measure of how fast the partners let go of each other. Usually kon stands for the rate constant with which the complex forms. Higher therefore signals fast association. In test [1], B1 came in with a Kd of 0.069 nM, a koff of 0.000102 s⁻¹ and a kon of 1.48e+06 M⁻¹ s⁻¹. In [2], this molecule displayed a Kd of 0.059 nM, a koff of 0.000139 s⁻¹ and a kon of 2.36e+06 M⁻¹ s⁻¹. For the same molecule, in test [3], the “fold improvement in KD against the corresponding VH1-46 variant” value (“fold improvement in KD” for short) was 2 fold.

B2: M671 (antibody, V domains shown)
VH: B1 VH with G56A, G62Q
VL: B1 VL with D34E
notes: isotype not restated (path 2); also called H258,L266
As to B2, in test [4], the “fold lower KD against the parental mAb M169” value was around 2 fold. For the same molecule, in [2], the Kd worked out at 0.039 nM, the koff is 9.73e-05 s⁻¹ and the kon stood at 2.52e+06 M⁻¹ s⁻¹.

B3: M55 (VH1-46/Vk012 HFR Fab of C2177) (Fab, V domains shown)
VH: QVQLVQSGAEVKKPGASVKVSCKASGYAFSSSWMNWVRQAPGQGLEWMGRIYPGDGDTNYNGKFKGRVTMTRDTSTSTVYMELSSLRSEDTAVYYCARSDYYGDYGFAYWGQGTLVTVSS
VL: B1 VL with F36Y, V108L
notes: Fab with human CH1 and Ck in the pIX phage display vector; also called H25/L36; parent HFR Fab
B3: in test [5], the binding result is “binds”.

B4: M668 (antibody, V domains shown)
VH: B3 VH with P53S, G56A, N61A, G62Q
VL: B1 VL with D34E
notes: isotype not restated (path 2); also called H255,L266
Take B4: the “fold lower KD against the parental mAb M160” value in [4] is around 2 fold. Also, in [2], the Kd is 0.06 nM, the koff was 0.000129 s⁻¹ and the kon stood at 2.14e+06 M⁻¹ s⁻¹.

B5: M171 (antibody, V domains shown)
VH: B1 VH
VL: B1 VL with F36Y
notes: isotype not restated (path 2); also called H221, L220
In test [1], B5 returned a dissociation constant (Kd) of 0.234 nM, a koff of 0.000358 s⁻¹ and a kon of 1.53e+06 M⁻¹ s⁻¹. Also, in test [6], the “fold improvement in KD” value was 2 fold.

B6: M170 (antibody, V domains shown)
VH: B1 VH
VL: B1 VL with G33H, D34E
notes: isotype not restated (path 2); also called H221, L217
As for B6, in test [1], the Kd came out at 0.07 nM, the koff was 0.000116 s⁻¹ and the kon was 1.66e+06 M⁻¹ s⁻¹. For the same molecule, the “fold improvement in KD” value in test [7] stood at 2 fold.

B7: C2192 (antibody, V domains shown)
VH: QVQLQQSGPELVKPGASVKISCKASGYAFSSSWMNWVKQRPGKGLEWIGRIYPGDGDTNYNGKFKGKATLTADKSSSTAYMQLSSLTSEDSAVYFCARRWDGGNYFFDYWGQGTTLTVSS
VL: DIVMTQSHKFMSTSVGDRVSITCMASQDVGTAVAWYQRRPGQSPKLLIYWTSTRHTGVPDRFTGSGSGTDFTLTISNVQSEDLADYFCQQYSSYPLTFGSGTKLEIK
As a reminder, the IC50 is the concentration needed to halve the response being measured. Turning to B7, in test [8], the “Agonism at 50 ug/ml (fold-increase in reporter gene signal relative to isotype control)” value amounted to 5.39 fold and the “NF-kB reporter IC50” value was determined as 0.232 µg/mL. In test [9], the “Plasma blast differentiation % Inhibition at 2.5 ug/ml” value was determined as 74%, the “T-Cell Proliferation % Inhibition at highest concentration (30 ug/ml)” value turned out to be 75.7% and the “T-Cell Proliferation - CD4+ Cells IC50” value stood at 0.445 µg/mL. Besides, in test [10], the IC50 is 0.054 µg/mL. This molecule gave a dissociation constant (Kd) in test [11] of 0.21 nM.

B8: Parent Fab (VH3-23/Vk012 HFR Fab of C2191) (Fab, V domains shown)
VH: EVQLLESGGGLVQPGGSLRLSCAASGFTFSSYTMSWVRQAPGKGLEWVSYISSGGGNTYYPDSVKGRFTISRDNSKNTLYLQMNSLRAEDTAVYYCARHRGNPFDYWGQGTLVTVSS
VL: DIQMTQSPSSLSASVGDRVTITCRASKSVSTSGYSFMHWYQQKPGKAPKLLIYLASNLESGVPSRFSGSGSGTDFTLTISSLQPEDFATYYCQHSRELPWTFGQGTKVEIK
notes: Fab with human CH1 and Ck in the pIX phage display vector; also called H39/L40; parental HFR Fab
As for B8, in [5], the binding result was “binds”.
